Results from patent publication CN116478288A.

Legend:
[1] = biological target: 食蟹猴CD47 (on overexpressing CHO-K1 cells) (cynomolgus monkey); assay: flow cytometry, purified antibody 10 ug/ml on CHO-K1 overexpressing cynomolgus CD47
[2] = biological target: 人源CD47 (on cells: hCD47-overexpressing CHO-K1; Raji) (human) (UniProt Q08722); assay: flow cytometry, purified antibody 10 ug/ml on CHO-K1 overexpressing human CD47
[3] = biological target: 人源CD47 (on cells: hCD47-overexpressing CHO-K1; Raji) (human) (UniProt Q08722); assay: flow cytometry on Raji cells (endogenous human CD47); Blank 58.3
[4] = biological target: 生物素化人源CD47蛋白 (购自Acro Biosystem) (human) (UniProt Q08722); assay: phage ELISA; biotinylated human CD47 on streptavidin plate; ratio of experiment to control
[5] = biological target: 人源CD47 (on cells: hCD47-overexpressing CHO-K1; Raji) (human) (UniProt Q08722); assay: flow cytometry, phage supernatant; MFI on human CD47 CHO-K1 over MFI on wild-type CHO-K1
[6] = biological target: 生物素化人源CD47蛋白 (购自Acro Biosystem) (human) (UniProt Q08722); assay: phage ELISA; biotinylated human CD47 on streptavidin plate, phage supernatant, HRP anti-M13
[7] = biological target: 人源CD47 (on cells: hCD47-overexpressing CHO-K1; Raji) (human) (UniProt Q08722); assay: flow cytometry, phage supernatant on CHO-K1 overexpressing human CD47, anti-M13 then fluorescent secondary
[8] = biological target: 食蟹猴CD47 (on overexpressing CHO-K1 cells) (cynomolgus monkey); assay: flow cytometry, phage supernatant; MFI on cynomolgus CD47 CHO-K1 over MFI on wild-type CHO-K1
[9] = biological target: 食蟹猴CD47 (on overexpressing CHO-K1 cells) (cynomolgus monkey); assay: flow cytometry, phage supernatant on CHO-K1 overexpressing cynomolgus CD47, anti-M13 then fluorescent secondary

B1: 人源化抗体ID 4 (antibody, human IgG4 S228P, kappa, V domains shown)
VH: QVQLVQSGAEVKKPGASVKVSCKASGYTFTSYWMNWVRQAPGQGLEWMGRIDSSDSETHYNQKFKDRVTMTRDTSTSTVYMELSSLRSEDTAVYYCARQGEGLRRSWFPYWGQGTLVTVSS
VL: DIVMTQSPDSLAVSLGERATINCRASKSVSTSGYSYIHWYQQKPGQPPKLLIYVASNLQSGVPDRFSGSGSGTDFTLTISSLQAEDVAVYYCQHIRELPWTFGQGTKVEIKR
**Q.** What does the source list for B1?
**A.** MFI [1]: 786 MFI; MFI [2]: 2040 MFI; MFI [3]: 14200 MFI

B2: 单克隆抗体ID 1 (phage粗培液, phage-displayed) (antibody, V domains shown)
VH: QVQLQQPGAELVKPGAPVKLSCKASGYTFTSYWMNWVKQRPGRGLEWIGRIDSSDSETHYNQKFKDKATLTVDKSSSTAYIQLSSLTSEDSAVYYCARQGEGLRRSWFPYWGQGTLVIVSA
VL: DIVLTQSPASLAVSLGQRATISCRASKSVSTSGYSYIHWYQQKPGQPPKLLIYVASNLQSGVPARFSGSGSGTDFTLNIHPVEEEDAATYYCQHIRELPWTFGGGTKLEIK
**Q.** B2 was tested. Which 实验/对照 (OD450 ratio) [4] did it give?
**A.** 50.6

**Q.** And the h-CHOK1/CHOK1 (MFI ratio to wild-type CHO-K1) [5]?
**A.** 13.4

**Q.** And the OD450 (实验) [6]?
**A.** 2.84 OD450

**Q.** And the MFI [7]?
**A.** 18300 MFI

**Q.** What about the c-CHOK1/CHOK1 (MFI ratio to wild-type CHO-K1) [8] of the same binder?
**A.** 10.7

**Q.** And the MFI [9]?
**A.** 14600 MFI
